Test results as given in PMC9152131.

Target: RFP-Hrs (UniProt O14964)
Chain of UniProt O14964 (O14964 whole entry): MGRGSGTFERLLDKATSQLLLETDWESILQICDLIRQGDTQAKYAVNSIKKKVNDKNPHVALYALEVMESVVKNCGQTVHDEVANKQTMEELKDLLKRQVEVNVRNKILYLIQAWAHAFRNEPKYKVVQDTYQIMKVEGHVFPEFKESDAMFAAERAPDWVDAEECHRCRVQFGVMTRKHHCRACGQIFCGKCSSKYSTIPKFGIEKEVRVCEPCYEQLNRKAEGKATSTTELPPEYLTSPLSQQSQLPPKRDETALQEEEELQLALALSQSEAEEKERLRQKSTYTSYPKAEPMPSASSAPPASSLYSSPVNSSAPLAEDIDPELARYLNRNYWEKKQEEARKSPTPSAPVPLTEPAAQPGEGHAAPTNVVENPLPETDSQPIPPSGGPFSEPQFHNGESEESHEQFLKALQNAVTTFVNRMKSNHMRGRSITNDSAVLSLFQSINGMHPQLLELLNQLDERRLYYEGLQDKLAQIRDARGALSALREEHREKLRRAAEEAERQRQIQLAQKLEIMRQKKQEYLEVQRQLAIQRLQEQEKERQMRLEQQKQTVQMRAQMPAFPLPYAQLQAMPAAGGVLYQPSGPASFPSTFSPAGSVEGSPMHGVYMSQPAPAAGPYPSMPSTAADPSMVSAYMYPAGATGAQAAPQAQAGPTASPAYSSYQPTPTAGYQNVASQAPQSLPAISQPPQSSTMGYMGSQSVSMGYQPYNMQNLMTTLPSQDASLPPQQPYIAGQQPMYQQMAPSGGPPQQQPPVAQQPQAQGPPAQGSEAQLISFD

percentage of transfected N2a cells exhibiting rapalog-induced Hrs recruitment to the centrosome/centriole (transport assay with BicD2-GFP-FKBP, kinesin tail-FRB-Myc and linker AP21967): 13%
B1: KIF13B-FRB-Myc (pBa-FRB-3myc-KIF13B tail 442–1826) (domain or fragment)
chain: KVGDDKCFLVNLNADPALNELLVYYLKEHTLIGSANSQDIQLCGMGILPEHCIIDITSEGQVMLTPQKNTRTFVNGSSVSSPIQLHHGDRILWGNNHFFRLNLPKKKKKAEREDEDQDPSMKNENSSEQLDVDGDSSSEVSSEVNFNYEYAQMEVTMKALGSNDPMQSILNSLEQQHEEEKRSALERQRLMYEHELEQLRRRLSPEKQNCRSMDRFSFHSPSAQQRLRQWAEEREATLNNSLMRLREQIVKANLLVREANYIAEELDKRTEYKVTLQIPASSLDANRKRGSLLSEPAIQVRRKGKGKQIWSLEKLDNRLLDMRDLYQEWKECEEDNPVIRSYFKRADPFYDEQENHSLIGVANVFLESLFYDVKLQYAVPIINQKGEVAGRLHVEVMRLSGDVGERIAGGDEVAEVSFEKETQENKLVCMVKILQATGLPQHLSHFVFCKYSFWDQQEPVIVAPEVDTSSSSVSKEPHCMVVFDHCNEFSVNITEDFIEHLSEGALAIEVYGHKINDPRKNPALWDLGIIQAKTRSLRDRWSEVTRKLEFWVQILEQNENGEYCPVEVISAKDVPTGGIFQLRQGQSRRVQVEVKSVQESGTLPLMEECILSVGIGCVKVRPLRAPRTHETFHEEEEDMDSYQDRDLERLRRKWLNALTKRQEYLDQQLQKLVSKRDKTEDDADREAQLLEMRLTLTEERNAVMVPSAGSGIPGAPAEWTPVPGMETHIPVIFLDLNADDFSSQDNLDDPEAGGWDATLTGEEEEEFFELQIVKQHDGEVKAEASWDSAVHGCPQLSRGTPVDERLFLIVRVTVQLSHPADMQLVLRKRICVNVHGRQGFAQSLLKKMSHRSSIPGCGVTFEIVSNIPEDAQGVEEREALARMAANVENPASADSEAYIEKYLRSVLAVENLLTLDRLRQEVAVKEQLTGKGKLSRRSISSPNVNRLSGSRQDLIPSYSLGSNKGRWESQQDVSQTTVSRGIAPAPALSVSPQNNHSPDPGLSNLAASYLNPVKSFVPQMPKLLKSLFPVRDEKRGKRPSPLAHQPVPRIMVQSASPDIRVTRMEEAQPEMGPDVLVQTMGAPALKICDKPAKVPSPPPVIAVTAVTPAPEAQDGPPSPLSEASSGYFSHSVSTATLSDALGPGLDAAAPPGSMPTAPEAEPEAPISHPPPPTAVPAEEPPGPQQLVSPGRERPDLEAPAPGSPFRVRRVRASELRSFSRMLAGDPGCSPGAEGNAPAPGAGGQALASDSEEADEVPEWLREGEFVTVGAHKTGVVRYVGPADFQEGTWVGVELDLPSGKNDGSIGGKQYFRCNPGYGLLVRPSRVRRATGPVRRRSTGLRLGAPEARRSATLSGSATNLASLTAALAKADRSHKNPENRKSWAS
